# What was measured:
# splenic B lymphocytes = experiment: Splenic B lymphocyte proliferation (CD86) and differentiation (GL-7) after three weekly injections; type: in vivo, BALB/c female mice; settings: 10 μg/mouse tail vein, once a week, three times; one week after last administration
# Text: (§1) The role of folate modification in mediating humoral immunosuppression and in reducing Anti-Drug Antibodies (ADA) of biomacromolecular drugs was investragated by using ovalbumin (OVA) as a model protein. OVA has strong immunogenicity and can induce the body to produce an immune response. Repeated stimulation of mice by OVA can cause the mice to produce lots of specific antibodies. The BALB/c female mice (5 weeks old) were randomly divided into FA-OVA (folate-OVA complex. Example 1) group, OVA group and physiological saline control group, with 6 mice in each group. FA-OVA, OVA and physiological saline were administered to mice via tail vein injection at a dose of 10 μg/mouse, once a week, three times in total.
# One week after the last administration, the spleen lymphocyte suspension was collected and subjected to flow cytometry for analysis of proliferation and differentiation of splenic B lymphocytes. CD86 was used as a marker for cell proliferation, and GL-7 was used as germinal center B-cell surface marker. FIGS. 11a and 11b provide the CD86 flow sorting graphs and statistical analysis results of mouse spleen lymphocytes, respectively. FIGS. 11c and 11d provide the GL7 flow sorting graphs and statistical analysis results of mouse spleen lymphocytes, respectively.
# OVA-specific antibodies = experiment: Serum OVA-specific antibodies by ELISA after three weekly injections; type: in vivo, BALB/c female mice; settings: 10 μg/mouse tail vein, once a week, three times; one week after last administration
# Text: as §1
# One week after the last administration, the serum of the mice was collected and was measured by ELISA for the expression of OVA-specific antibodies in the serum. The results are shown in FIG. 12, wherein FIGS. 12a, 12b, 12c and 12d show the results of OVA-specific IgE, IgG, IgG1 and IgG2a, respectively.
# [1] = test system: anaphylactic shock induced by OVA (allergen); experiment: Prevention of anaphylactic shock: pretreatment, then OVA challenge; type: in vivo; settings: pretreatment 10 μg OVA/mouse iv weekly x3, challenge 10 μg OVA
# Protocol: The BALB/c female mice (5 weeks old) were randomly divided into FA-OVA group, OVA group and physiological saline group, with 10 mice in each group. FA-OVA or OVA or physiological saline of an equal volume was administered to the mice via tail vein injection at a dose of 10 μg OVA/mouse, once a week for a total of three times. One week after the last administration, each mouse was injected with 10 μg OVA (allergen) via tail vein. Changes in body temperature of the mice within 2 hours after OVA stimulation were recorded (FIG. 18). In the meanwhile, the serum was collected from the mice, and was measured by ELISA for the expression of OVA-specific antibodies in the serum (FIG. 19). […] Therefore, folate modification can effectively prevent anaphylactic shock induced by allergens.
# [2] = test system: anaphylactic shock in OVA-sensitized mice; experiment: Treatment of anaphylactic shock: OVA-sensitized mice treated, then OVA challenge; type: in vivo, BALB/c female mice; settings: 4 μg/mouse iv every two days x3, challenge 25 μg OVA
# Protocol: The BALB/c female mice (5 weeks old) were subcutaneously injected with 10 μg OVA for sensitization, once a week, three times in total. One week after the last sensitization, the OVA-sensitized mice were injected with FA-OVA, OVA and physiological saline via tail vein at a dose of 4 μg/mouse, once every two days for three times in total. After the last administration, the mice were injected with 25 μg OVA (allergen) via tail vein. Changes in body temperature of the mice within 2 hours after the injection were recorded (FIG. 20). In the meanwhile, the serum was collected from the mice and was measured by ELISA for the level of the OVA-specific antibodies in the serum (FIG. 21). The mice without OVA sensitization but stimulated by tail vein injection of OVA served as the Naïve control group.
# [3] = Water solubility (observation on preparation); type: physicochemical
# [4] = Blood routine analysis one week after last administration; type: in vivo, BALB/c female mice; settings: 10 μg/mouse tail vein weekly x3
# Text: as §1
# In addition, the whole blood of the mice was collected one week after the last administration for blood routine analysis.
molecule,measurement,setting,value
"FA-OVA: folate-modified ovalbumin complex, EDC coupling of folic acid to OVA",proliferation of B-cell (CD86) and differentiation into germinal center B-cell (GL-7),splenic B lymphocytes,significantly inhibited
same,"expression of OVA-specific antibodies in the serum (IgE, IgG, IgG1, IgG2a)",OVA-specific antibodies,significantly inhibited
same,body temperature within 2 hours after OVA stimulation,[1],did not change significantly
same,"serum OVA-specific antibodies (IgE, IgG1, IgG2a) after challenge",[1],substantially comparable to the physiological saline group
same,effect of treatment on anaphylaxis (body temperature curve),[2],desensitizing effect
same,"expressions of OVA-specific antibodies IgE, IgG1 and IgC2a in serum",[2],comparable to those in the physiological saline group and significantly decreased compared with those in the OVA group
same,time for body temperature to return to normal after OVA challenge,[2],≤ 2 h
"OVA: ovalbumin, model protein and allergen [reference compound]",proliferation of B-cell (CD86) and differentiation into germinal center B-cell (GL-7),splenic B lymphocytes,proliferated significantly and differentiated into the germinal center B-cell
same,"expression of OVA-specific antibodies in the serum (IgE, IgG, IgG1, IgG2a)",OVA-specific antibodies,a large amount of OVA-specific antibodies
same,body temperature within 2 hours after OVA stimulation,[1],dropped significantly
same,"serum OVA-specific antibodies (IgE, IgG1, IgG2a) after challenge",[1],a large number of OVA-specific antibodies
"FA-OVA: folate-modified ovalbumin complex, EDC coupling of folic acid to OVA (conjugate, UniProt P01012 2-386, looked up, folate via EDC coupling) Ovalbumin: GSIGAASMEFCFDVFKELKVHHANENIFYCPIAIMSALAMVYLGAKDSTRTQINKVVRFDKLPGFGDSIEAQCGTSVNVHSSLRDILNQITKPNDVYSFSLASRLYAEERYPILPEYLQCVKELYRGGLEPINFQTAADQARELINSWVESQTNGIIRNVLQPSSVDSQTAMVLVNAIVFKGLWEKAFKDEDTQAMPFRVTEQESKPVQMMYQIGLFRVASMASEKMKILELPFASGTMSMLVLLPDEVSGLEQLESIINFEKLTEWTSSNVMEERKIKVYLPRMKMEEKYNLTSVLMAMGITDVFSSSANLSGISSAESLKISQAVHAAHAEINEAGREVVGSAEAGVDAASVSEEFRADHPFLFCIKHIATNAVLFFGRCVSP",water solubility,[3],easily soluble in water
same,BASO,[4],0 10*9/L
same,HCT,[4],49.83 ± 4.53%
same,HGB,[4],161.50 ± 9.26 g/L
same,LYMPH,[4],2.78 ± 0.19 10*9/L
same,MCH,[4],16.28 ± 0.59 pg
same,MCHC,[4],325.00 ± 12.35 g/L
same,MCV,[4],50.075 ± 1.37 fL
same,MONO,[4],0.035 ± 0.0058 10*9/L
same,MPV,[4],7.05 ± 0.058 fL
same,NEYT,[4],0.94 ± 0.23 10*9/L
same,NRBC,[4],0.015 ± 0.013 10*9/L
same,P-LCR,[4],4.35 ± 1.01%
same,PCT,[4],0.41 ± 0.042%
same,PDW,[4],5.58 ± 0.096 fL
same,PLT,[4],586.50 ± 59.29 10*9/L
same,RBC,[4],9.96 ± 0.89 10*12/L
same,RDW-CV,[4],14.78 ± 0.50%
same,WBC,[4],3.77 ± 0.42 10*9/L
"OVA: ovalbumin, model protein and allergen (protein, UniProt P01012 2-386, looked up) Ovalbumin: GSIGAASMEFCFDVFKELKVHHANENIFYCPIAIMSALAMVYLGAKDSTRTQINKVVRFDKLPGFGDSIEAQCGTSVNVHSSLRDILNQITKPNDVYSFSLASRLYAEERYPILPEYLQCVKELYRGGLEPINFQTAADQARELINSWVESQTNGIIRNVLQPSSVDSQTAMVLVNAIVFKGLWEKAFKDEDTQAMPFRVTEQESKPVQMMYQIGLFRVASMASEKMKILELPFASGTMSMLVLLPDEVSGLEQLESIINFEKLTEWTSSNVMEERKIKVYLPRMKMEEKYNLTSVLMAMGITDVFSSSANLSGISSAESLKISQAVHAAHAEINEAGREVVGSAEAGVDAASVSEEFRADHPFLFCIKHIATNAVLFFGRCVSP",BASO,[4],0 10*9/L
same,HCT,[4],52.15 ± 5.97%
same,HGB,[4],169.25 ± 13.45 g/L
same,LYMPH,[4],2.58 ± 0.29 10*9/L
same,MCH,[4],16.08 ± 0.67 pg
same,MCHC,[4],325.75 ± 16.50 g/L
same,MCV,[4],49.43 ± 0.43 fL
same,MONO,[4],0.035 ± 0.017 10*9/L
same,MPV,[4],7.10 ± 0.14 fL
same,NEYT,[4],0.80 ± 0.21 10*9/L
same,NRBC,[4],0.025 ± 0.013 10*9/L
same,P-LCR,[4],5.15 ± 1.48%
same,PCT,[4],0.45 ± 0.016%
same,PDW,[4],5.53 ± 0.15 fL
same,PLT,[4],635.00 ± 36.59 10*9/L
same,RBC,[4],10.55 ± 1.13 10*12/L
same,RDW-CV,[4],14.63 ± 0.33%
same,WBC,[4],3.43 ± 0.51 10*9/L
same,anaphylactic shock / death after OVA challenge,[1]; 10 mice per group,two mice died

# — patent US20230381183A1, “USE OF FOLIC ACID AND FOLATE MODIFICATION IN INDUCING B-CELL IMMUNE TOLERANCE AND TARGETING mIgM-POSITIVELY-EXPRESSED B-CELL LYMPHOMA” (FUDAN UNIVERSITY, priority 2020, published 2023)
